Experiments:
[1] = molecular target: membrane of human macrophages differentiated in vitro in the presence of M-CSF from CD14+ monocytes; test: flow cytometry on human macrophages, AF647 label, 37 C
[2] = molecular target: membrane of human CD14+ monocytes isolated from the peripheral blood of a healthy subject; test: flow cytometry on human monocytes, AF647 label, 37 C

MFI [1]: 1640 MFI | Ratio (MFI against that of the isotype control) [1]: 1 | MFI [2]: 265 MFI | Ratio (MFI against that of the isotype control) [2]: 1
Substance: non-specific antibody corresponding to an isotype control coupled to the Alexa Fluor (AF) 647 fluorochrome

From patent US20260091122A1
